Substrate in the data set: CC1=C(/C=C/C(C)=C/C=C/C(C)=C/C(=O)Oc2ccc(O[C@@H]3OC(CO)[C@@H](O)C(O)C3O)cc2)C(C)(C)CCC1
Description: Michaelis constants (Km) and Vm of recombinant β-glucocerebrosidase for pseudosubstrates. The class given is biochemical. As to conditions: other: phthalate buffer pH 5.6 (0.025 M), taurocholate 5 mM, purified β-glucocerebrosidase, 30 minutes incubation, HPLC assay. The method, then: After confirming that β-glucocerebrosidase is expressed in the keratinocytes, we produced a recombinant enzyme in the baculovirus system. A histidine tail was added to the COOH end of the protein to allow it to be purified by affinity column chromatography.
Thus, we were able to determine the Michaelis constants (Km) and the Vm values of the recombinant β-glucocerebrosidase in particular for the retinoic acid-arbutin glucoconjugate. The kinetics measurements are carried out in a phthalate buffer at pH 5.6 (0.025 M) containing taurocholate (5 mM), purified β-glucocerebrosidase and the test conjugate at various concentrations. The incubation lasts 30 minutes and the amount of hydroquinone-retinoic acid conjugate released is assayed by HPLC. The table below gives the results obtained. […] As regards their rates of hydrolysis, these are lower and thus allow effects to be obtained over time.

One protein from patent US6818657B1, “Bioprecursors of a retinoic derivative and pharmaceutical and/or cosmetic compositions” (Pierre Fabre Dermo-Cosmetique, priority 1999, dated 2004) can be followed below.

B1: recombinant β-glucocerebrosidase (Homo sapiens) (protein)
chain: ARPCIPKSFGYSSVVCVCNATYCDSFDPPTFPALGTFSRYESTRSGRRMELSMGPIQANHTGTGLLLTLQPEQKFQKVKGFGGAMTDAAALNILALSPPAQNLLLKSYFSEEGIGYNIIRVPMASCDFSIRTYTYADTPDDFQLHNFSLPEEDTKLKIPLIHRALQLAQRPVSLLASPWTSPTWLKTNGAVNGKGSLKGQPGDIYHQTWARYFVKFLDAYAEHKLQFWAVTAENEPSAGLLSGYPFQCLGFTPEHQRDFIARDLGPTLANSTHHNVRLLMLDDQRLLLPHWAKVVLTDPEAAKYVHGIAVHWYLDFLAPAKATLGETHRLFPNTMLFASEACVGSKFWEQSVRLGSWDRGMQYSHSIITNLLYHVVGWTDWNLALNPEGGPNWVRNFVDSPIIVDITKDTFYKQPMFYHLGHFSKFIPEGSQRVGLVASQKNDLDAVALMHPDGSAVVVVLNRSSKDVPLTIKDPAVGFLETISPGYSIHTYLWRRQ
notes: histidine tail (His tag) (C); made in house
On to B1, for which the Km (as a rule, the concentration of substrate that gives half-maximal velocity) was 5 ± 1.2 µM and the Vmax – broadly, the top rate of the reaction or transport when substrate is in excess – turned out to be 235 ± 19 nmol/h/mg.
